Source: PMC12416549 (2024)
Where a chain is given by its changes, count along the chain named. Names and notes keep the numbering of the source.

T1: TNFR1 (Homo sapiens, UniProt P19438)
T1 chain: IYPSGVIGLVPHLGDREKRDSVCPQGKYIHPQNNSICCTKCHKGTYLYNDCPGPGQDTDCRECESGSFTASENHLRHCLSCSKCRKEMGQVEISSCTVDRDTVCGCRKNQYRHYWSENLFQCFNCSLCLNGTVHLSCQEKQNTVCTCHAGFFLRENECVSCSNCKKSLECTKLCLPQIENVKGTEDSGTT

B1: P32W (designed binder)
chain: MTLQELLREEALRRAEAEAFRYALELLAEKFWEQKEYLLDLAEEIESQIRSLSGVDVEDVRKFLDKEWAWVKELLAEHPAELAEVEAARAARLAELRAEVEAKVAA
B2: A98W (designed binder)
chain: B1 chain with W32P, A98W
B3: V55K (designed binder)
chain: B1 chain with W32P, V55K
B4: E10L (designed binder)
chain: B1 chain with E10L, W32P
B5: L6V (designed binder)
chain: B1 chain with L6V, W32P
B6: E58K (designed binder)
chain: B1 chain with W32P, E58K
B7: L96F (designed binder)
chain: B1 chain with W32P, L96F
B8: R8V (designed binder)
chain: B1 chain with R8V, W32P
B9: R89I (designed binder)
chain: B1 chain with W32P, R89I
B10: E77R (designed binder)
chain: B1 chain with W32P, E77R
B11: Q4G (designed binder)
chain: B1 chain with Q4G, W32P
B12: A87E (designed binder)
chain: B1 chain with W32P, A87E
B13: S53M (designed binder)
chain: B1 chain with W32P, S53M
B14: A83P (designed binder)
chain: B1 chain with W32P, A83P
B15: R13M (designed binder)
chain: B1 chain with R13M, W32P
B16: V71H (designed binder)
chain: B1 chain with W32P, V71H
B17: E77A (designed binder)
chain: B1 chain with W32P, E77A
B18: P32T (designed binder)
chain: B1 chain with W32T
B19: E73K (designed binder)
chain: B1 chain with W32P, E73K
B20: A69S (designed binder)
chain: B1 chain with W32P, A69S
B21: V85L (designed binder)
chain: B1 chain with W32P, V85L
B22: V60T (designed binder)
chain: B1 chain with W32P, V60T
B23: D40W (designed binder)
chain: B1 chain with W32P, D40W
B24: E46V (designed binder)
chain: B1 chain with W32P, E46V
B25: E33G (designed binder)
chain: B1 chain with W32P, E33G
B26: K103T (designed binder)
chain: B1 chain with W32P, K103T
B27: E36I (designed binder)
chain: B1 chain with W32P, E36I
B28: T2K (designed binder)
chain: B1 chain with T2K, W32P
B29: E43D (designed binder)
chain: B1 chain with W32P, E43D
B30: L39H (designed binder)
chain: B1 chain with W32P, L39H
B31: A19I (designed binder)
chain: B1 chain with A19I, W32P
B32: A106F (designed binder)
chain: B1 chain with W32P, A106F
B33: L24G (designed binder)
chain: B1 chain with L24G, W32P
B34: F31I (designed binder)
chain: B1 chain with F31I, W32P
B35: A76N (designed binder)
chain: B1 chain with W32P, A76N
B36: L96C (designed binder)
chain: B1 chain with W32P, L96C
B37: P79R (designed binder)
chain: B1 chain with W32P, P79R
B38: A102L (designed binder)
chain: B1 chain with W32P, A102L
B39: L26H (designed binder)
chain: B1 chain with L26H, W32P
B40: D56A (designed binder)
chain: B1 chain with W32P, D56A
B41: K66H (designed binder)
chain: B1 chain with W32P, K66H
B42: R8A (designed binder)
chain: B1 chain with R8A, W32P
B43: V71D (designed binder)
chain: B1 chain with W32P, V71D
B44: W68E (designed binder)
chain: B1 chain with W32P, W68E
B45: A19D (designed binder)
chain: B1 chain with A19D, W32P
B46: E99I (designed binder)
chain: B1 chain with W32P, E99I
B47: E84W (designed binder)
chain: B1 chain with W32P, E84W
B48: V71A (designed binder)
chain: B1 chain with W32P, V71A
B49: E29N (designed binder)
chain: B1 chain with E29N, W32P
B50: A87F (designed binder)
chain: B1 chain with W32P, A87F
B51: A105P (designed binder)
chain: B1 chain with W32P, A105P
B52: R61W (designed binder)
chain: B1 chain with W32P, R61W
B53: L7Q (designed binder)
chain: B1 chain with L7Q, W32P
B54: L12V (designed binder)
chain: B1 chain with L12V, W32P
B55: E18D (designed binder)
chain: B1 chain with E18D, W32P
B56: Y37I (designed binder)
chain: B1 chain with W32P, Y37I
B57: D59Y (designed binder)
chain: B1 chain with W32P, D59Y
B58: R50G (designed binder)
chain: B1 chain with W32P, R50G
B59: I45N (designed binder)
chain: B1 chain with W32P, I45N

Target: T1, TNFR1
Assay: yeast display SC50

Binder | apparent Kd (screen) [nM]
B1 | 0.49
B2 | 0.49
B3 | 16.7
B4 | 0.539
B5 | 2.48
B6 | 0.49
B7 | 0.539
B8 | 0.539
B9 | 0.653
B10 | 0.49
B11 | 0.49
B12 | 0.446
B13 | 1.27
B14 | 1.27
B15 | 0.304
B16 | 0.539
B17 | 0.539
B18 | 0.539
B19 | 0.539
B20 | 0.718

Binder | apparent Kd (screen) [nM]
B21 | 2.73
B22 | 0.539
B23 | 0.49
B24 | 0.49
B25 | 0.79
B26 | 0.956
B27 | 2.48
B28 | 0.718
B29 | 0.79
B30 | 2.48
B31 | 0.956
B32 | 0.718
B33 | 1.4
B34 | 0.956
B35 | 0.49
B36 | 0.49
B37 | 0.869
B38 | 0.79
B39 | 0.593
B40 | 2.05

Binder | apparent Kd (screen) [nM]
B41 | 1.05
B42 | 0.869
B43 | 29.5
B44 | 2.73
B45 | 1.16
B46 | 0.49
B47 | 0.593
B48 | 0.49
B49 | 0.956
B50 | 0.79
B51 | 0.79
B52 | 3.63
B53 | 8.56
B54 | 0.539
B55 | 0.718
B56 | 22.2
B57 | 3
B58 | 1.05
B59 | 4.83
